Experimental findings from paper PMC7904846, “Nanobody-based chimeric antigen receptor T cells designed by CRISPR/Cas9 technology for solid tumor immunotherapy” (Signal Transduction and Targeted Therapy, 2021) are described below.

This test concerns the target T1, CD105 (Homo sapiens, UniProt P17813).
T1 construct: CD105 (endoglin), human; also called endoglin; CD105 protein
Put plainly: SPR; CD105 Nbs (10 ug/mL) immobilised on PlexArray Nanocapture Sensor Chips; different concentrations injected at 3.0 uL/s; PlexArray HT system; regeneration with 0.05 mol/L NaOH; 25 °C; triplicate. Particulars: both partners purified.

T1 sequence (P17813 26-658): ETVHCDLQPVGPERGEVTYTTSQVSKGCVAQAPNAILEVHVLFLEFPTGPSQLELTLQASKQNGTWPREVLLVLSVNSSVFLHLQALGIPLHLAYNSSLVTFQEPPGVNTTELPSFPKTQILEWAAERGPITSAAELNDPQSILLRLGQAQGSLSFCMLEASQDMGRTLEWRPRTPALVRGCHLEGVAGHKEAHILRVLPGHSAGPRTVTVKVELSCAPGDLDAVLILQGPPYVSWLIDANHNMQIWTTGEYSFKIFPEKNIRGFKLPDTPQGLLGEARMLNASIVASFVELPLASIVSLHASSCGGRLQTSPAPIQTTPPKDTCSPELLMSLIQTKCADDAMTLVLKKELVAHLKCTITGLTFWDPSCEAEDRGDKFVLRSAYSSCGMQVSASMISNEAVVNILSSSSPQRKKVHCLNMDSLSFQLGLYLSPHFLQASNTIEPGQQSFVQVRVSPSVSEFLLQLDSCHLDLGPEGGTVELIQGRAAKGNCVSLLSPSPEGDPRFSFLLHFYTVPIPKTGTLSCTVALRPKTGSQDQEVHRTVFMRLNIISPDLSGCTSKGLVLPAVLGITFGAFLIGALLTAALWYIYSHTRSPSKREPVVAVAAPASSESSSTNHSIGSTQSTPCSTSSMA

B1: Nb C184 (VHH)
VHH: QVQLQESGGGSVQAGGSLRLSCVASGYTVSRGYMGWFRQAPGKEREAVAAIRTGSGSTYYADSVKGRFTISQDNAKNTVYLQMNSLKHEDTGMYYCAASLWYGGNWQSWGSYNYWGQGTQVTVSS
notes: camel VHH selected by phage display against CD105; Cloned in phagemid pMECS, which gives C-terminal hemagglutinin-His6-tagged Nbs; In the CAR the same VHH is joined to the CD8a hinge and transmembrane domain, 4-1BB and CD3zeta; also called anti-CD105 Nanobody (C184); CD105 Nb
For the molecule B1, the binding result is reported as “binds”.
